Key:
[1] = target: T1, recombinant biotinylated CD71 extracellular domain (Sino Biologics) with an N-terminal 6His tag (human, UniProt P02786 89-760, biotinylated (sites not given)); assay: screening ELISA
T1 construct: extracellular domain; also called hCD71; huCD71

[2] = target: T1, recombinant biotinylated CD71 …; assay: screening ELISA, ratio

T1 sequence (P02786 other isoform, or with tags, fused parts or gaps): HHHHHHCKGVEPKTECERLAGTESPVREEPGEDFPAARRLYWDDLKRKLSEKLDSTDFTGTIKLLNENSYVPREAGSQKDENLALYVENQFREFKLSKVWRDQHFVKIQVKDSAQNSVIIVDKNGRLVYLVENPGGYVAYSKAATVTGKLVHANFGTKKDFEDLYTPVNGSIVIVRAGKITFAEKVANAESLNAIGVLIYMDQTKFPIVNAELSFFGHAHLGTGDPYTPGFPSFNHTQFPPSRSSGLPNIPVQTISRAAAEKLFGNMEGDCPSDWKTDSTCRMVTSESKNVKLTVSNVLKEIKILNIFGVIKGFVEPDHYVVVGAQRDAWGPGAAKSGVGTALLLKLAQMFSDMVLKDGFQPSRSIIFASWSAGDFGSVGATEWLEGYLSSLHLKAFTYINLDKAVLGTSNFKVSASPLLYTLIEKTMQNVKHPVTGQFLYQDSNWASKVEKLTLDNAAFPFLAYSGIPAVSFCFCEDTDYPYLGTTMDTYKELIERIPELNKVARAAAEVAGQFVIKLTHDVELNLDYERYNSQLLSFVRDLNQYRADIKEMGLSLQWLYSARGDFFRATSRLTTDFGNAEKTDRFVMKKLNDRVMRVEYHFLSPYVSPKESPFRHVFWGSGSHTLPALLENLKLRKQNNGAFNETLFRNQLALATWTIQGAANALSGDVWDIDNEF

| Binder | hCD71 [1] | hCD71:HSA [2] |
| --- | --- | --- |
| SEQ ID NO 256 (designed binder, FN3 domain) MLPAPKNLVVSRVTEDSARLSWTAPDAAFDSFHIVYHEPRPSGEAIVLTVPGSERSYDLTGLKPGTEYEVGIVGVKGGDLSVPLSAIFTT | 1.98e+06 | 900 |
| SEQ ID NO 293 (designed binder, FN3 domain) MLPAPKNLVVSRVTEDSARLSWTAPDAAFDSFTIEYWEFTGSGEAIVLTVPGSERSYDLTGLKPGTEYDVSIYGVKGGWLSYPLSAIFTT | 3.59e+06 | 520 |
| SEQ ID NO 276 (designed binder, FN3 domain) MLPAPKNLVVSRVTEDSARLSWTAPDAAFDSFRIDYLELTSLGEAIVLTVPGSERSYDLTGLKPGTEYPVPILGVKGGLSSWPLSAIFTT | 720000 | 58 |
| SEQ ID NO 306 (designed binder, FN3 domain) MLPAPKNLVVSRVTEDSARLSWTAPDAAFDSFYIEYFETQGYGEAIVLTVPGSERSYDLTGLKPGTEYYVAIYGVKGGYLSRPLSAIFTT | 4.07e+06 | 1810 |
| SEQ ID NO 305 (designed binder, FN3 domain) MLPAPKNLVVSRVTEDSARLSWTAPDAAFDSFEIDYDEPFVYGEAIVLTVPGSERSYDLTGLKPGTEYRVFIFGVKGGNGSWPLSAIFTT | 1.21e+06 | 48 |
| SEQ ID NO 279 (designed binder, FN3 domain) MLPAPKNLVVSRVTEDSARLSWTAPDAAFDSFSIEYYESVGLGEAIVLTVPGSERSYDLTGLKPGTEYDVSIYGVKGGYLSRPLSAIFTT | 4.09e+06 | 1300 |
| SEQ ID NO 283 (designed binder, FN3 domain) MLPAPKNLVVSRVTEDSARLSWTAPDAAFDSFPIAYAEPRPDGEAIVLTVPGSERSYDLTGLKPGTEYSVLIHGVKGGLLSSPLSAIFTT | 2.95e+06 | 472 |
| SEQ ID NO 264 (designed binder, FN3 domain) MLPAPKNLVVSRVTEDSARLSWTAPDAAFDSFRIKYQEWWVEGEAIVLTVPGSERSYDLTGLKPGTEYVVQIAGVKGGLSSYPLSAIFTT | 2.98e+06 | 1170 |
| SEQ ID NO 287 (designed binder, FN3 domain) MLPAPKNLVVSRVTEDSARLSWTAPDAAFDSFTIEYHESGPVGEAIVLTVPGSERSYDLTGLKPGTEYMVWIFGVKGGFVSRPLSAIFTT | 3.88e+06 | 706 |
| SEQ ID NO 298 (designed binder, FN3 domain) MLPAPKNLVVSRVTEDSARLSWTAPDAAFDSFPIAYAEPRPDGEAIVLTVPGSERSYDLTGLKPGTEYSVLIHGVKGGLLSSPLSAISTT | 2.51e+06 | 74 |
| SEQ ID NO 288 (designed binder, FN3 domain) MLPAPKNLVVSRVTEDSARLSWTAPDAAFDSFLIPYAETSPSGEAIVLTVPGSERSYDLTGLKPGTEYSVLIHGVKGGDYSSPLSAISTT | 659000 | 16 |
| SEQ ID NO 275 (designed binder, FN3 domain) MLPAPKNLVVSRVTEDSARLSWTAPDAAFDSFLIAYAEVTLHGEAIVLTVPGSERSYDLTGLKPGTEYSVLIHGVKGGRNSDPLSAIFTT | 2.25e+06 | 591 |
| SEQ ID NO 258 (designed binder, FN3 domain) MLPAPKNLVVSRVTEDSARLSWTAPDAAFDSFFIPYAEPSPTGEAIVLTVPGSERSYDLTGLKPGTEYDVWIEGVKGGVLSWPLSAIFTT | 1.04e+06 | 98 |
| SEQ ID NO 267 (designed binder, FN3 domain) MLPAPKNLVVSRVTEDSARLSWTAPDAAFDSFPIVYSEIHVIGEAIVLTVPGSERSYDLTGLKPGTEYDVWIEGVKGGHLSEPLSAIFTT | 1.97e+06 | 166 |
| SEQ ID NO 282 (designed binder, FN3 domain) MLPAPKNLVVSRVTEDSARLSWTAPDAAFDSFAIVYHEPRPDGEAIVLTVPGSERSYDLTGLKPGTEYEVVILGVKGGVHSYPLSAIFTT | 3.85e+06 | 206 |
| SEQ ID NO 263 (designed binder, FN3 domain) MLPAPKNLVVSRVTEDSARLSWTAPDAAFDSFFIGYLEPQPPGEAIVLTVPGSERSYDLTGLKPGTEYNVTIQGVKGGFPSMPLSAISTT | 1.88e+06 | 92 |
| SEQ ID NO 285 (designed binder, FN3 domain) MLPAPKNLVVSRVTEDSARLSWTAPDAAFDSFLIPYAETSPSGEAIVLTVPGSERSYDLTGLKPGTEYSVLIHGVKGGDYSSPLSAIFTT | 2.44e+06 | 1110 |
| SEQ ID NO 300 (designed binder, FN3 domain) MLPAPKNLVVSRVTEDSARLSWTAPDAAFDSFFIGYLEPQPPGEAIVLTVPGSERSYDLTGLKPGTEYNVTIHGVKGGTPSMPLSAIFTT | 2.31e+06 | 571 |
| SEQ ID NO 304 (designed binder, FN3 domain) MLPAPKNLVVSRVTEDSARLSWTAPDAAFDSFIITYWEHVGDGEAIVLTVPGSERSYDLTGLKPGTEYFVEIYGVKGGYLSKPLSAIFTT | 3.34e+06 | 1240 |
| SEQ ID NO 289 (designed binder, FN3 domain) MLPAPKNLVVSRVTEDSARLSWTAPDAAFDSFAIPYYEDTNDGEAIVLTVPGSERSYDLTGLKPGTEYWVSIQGVKGGTVSGPLSAIFTT | 2.27e+06 | 1060 |
| SEQ ID NO 262 (designed binder, FN3 domain) MLPAPKNLVVSRVTEDSARLSWTAPDAAFDSFAIEYFEYTGEGEAIVLTVPGSERSYDLTGLKPGTEYYVGIYGVKGGYLSRPLSAIFTT | 4.38e+06 | 1860 |
| SEQ ID NO 271 (designed binder, FN3 domain) MLPAPKNLVVSRVTEDSARLSWTAPDAAFDSFYIPYAETRDDGEAIVLTVPGSERSYDLTGLKPGTEYSVLIHGVKGGDLSSPLSAIFTT | 2.11e+06 | 693 |
| SEQ ID NO 268 (designed binder, FN3 domain) MLPAPKNLVVSRVTEDSARLSWTAPDAAFDSFTIVYGEAGAFGEAIVLTVPGSERSYDLTGLKPGTEYDVLIEGVKGGNLSWPLSAIFTT | 1.6e+06 | 626 |
| SEQ ID NO 272 (designed binder, FN3 domain) MLPAPKNLVVSRVTEDSARLSWTAPDAAFDSFGIPYAESTPTGEAIVLTVPGSERSYDLTGLKPGTEYSVLIHGVKGGHLSDPLSAIFTT | 1.78e+06 | 199 |
| SEQ ID NO 295 (designed binder, FN3 domain) MLPAPKNLVVSRVTEDSARLSWTAPDAAFDSFFIGYLEPIPSGEAIVLTVPGSERSYDLTGLKPGTEYPVVIQGVKGGHPSQPLSAIFTT | 3.38e+06 | 891 |
| SEQ ID NO 265 (designed binder, FN3 domain) MLPAPKNLVVSRVTEDSARLSWTAPDAAFDSFWIYYIETSHQGEAIVLTVPGSERSYDLTGLKPGTEYFVLIKGVKGGYDSVPLSAIFTT | 3.61e+06 | 913 |

Source: patent publication US20210145976A1 (ARO BIOTHERAPEUTICS, published 2021)
